Source: patent US8969081B2, “Caudal motor neuron derived from embryonic stem cells under conditions essentially free of any retinoid” (The Trustees of Columbia University in the City of New York, priority 2008, dated 2015)
Entries after “also recorded” stand apart in the source; their conditions may differ.

Experiments:
[1] = test system: differentiating ES cells / ES-MNs; experiment: Rostro-caudal patterning of differentiating ES cells (Hox / positional marker immunostaining); assay type: cell-based, mouse; conditions: for Rostro-caudal positional marker expression / segmental identity: EBs supplemented on Day 3, markers examined two to four days later; for Rostro-caudal identity of MNs after FGF2 (Hoxd9): 100 ng/ml on day 3
Protocol: (§1) Differentiation of cervical level motor neurons from mouse ES cells was performed as previously described (Wichterle et al., 2002). For differentiation of caudal brachial level MNs from ES cells, ES cells were grown in ES cell medium for two days, dissociated and plated into non-adherent tissue culture dishes using ADFNK medium at a density of 20,000 cells/ml. Medium is changed each day but not on Day 3 and Day 4 of differentiation (three and four days after dissociation of ES cells and plating into differentiation medium, respectively). Addition of any factors to differentiating embryonic bodies (EBs) was performed on Day 3. These included: 1 μg/ml Dickopf-1 Dkk1 (R&D Systems), FGF Receptor Inhibitor (PD173074, 100 nM final concentration), FGFb (Recombinant Human, FTF-basic, 120-17, PeproTech), rhGdf11 (R&D Systems, Cat#1958-GD). GDNF (10 ng/ml, R&D Systems) was supplemented on Day 5 of differentiation in selected cultures.
(§2) For immunocytochemical analysis, embryonic bodies (EBs) were dissociated using 0.05% Trypsin-EDTA on Day 6 and plated at low densities on laminin coated coverslips using ADFNB medium supplemented with 10 ng/ml Glial cell-derived neurotrophic factor (GDNF). For quantification of MN subtypes, EBs were collected on Day 6 and dissociated using 0.05 Trypsin-EDTA. Dissociated cells were plated on laminin coated coverslips using ADFNB medium (DMEM/F12, Neurobasal, 1 ml B27 50× supplement and optional 5 ng/ml of GDNF to enhance survival of MN cultures) and fixed with 4% PFA one day later.
(§3) Immunocytochemistry on ES cell-derived MNs and EBs was performed as previously described (Wichterle et al., 2002). Antibodies against the following proteins were used in the analysis during this study: Otx2, Hoxa5, Hoxc8, Hoxc6, Hoxc9, Hoxd9, Hoxd10, Foxp1, Lhx3, Pea3, Scip, NeuN, dsRed, NF.
For each experiment, 10 distinct randomized image fields were taken using a confocal microscope LSM Zeiss Meta 510. Expression of all markers used for quantifications was gated to GFP positive cells, ES cell-derived spinal MNs. Images were analyzed for the expression of the above stated markers in the context of the ES cell-derived caudal brachial MNs. Each quantification is the result of at least three independent experiments (three independent differentiation experiments).
All experiments were performed with HBG3 ES cell line harboring Hb9-GFP transgene (Wichterle et al., 2002) and key experiments were confirmed using a control MM13 ES cell line. Differentiation of HBG3 ES cell line under RA/Hh conditions into rostral cervical MNs was performed as previously described (Wichterle et al., 2002; Wichterle and Peljto, 2008). For production of cervical MNs, ES cells were plated at 50,000 cells/ml in ADFNK differentiation medium [Advanced D-MEM/F-12 (Invitrogen): Neurobasal medium (Invitrogen) (1:1), 10% Knockout Serum Replacement (Invitrogen), […] L-Glutamine (Invitrogen), 0.1 mM β-mercaptoethanol (Sigma), and Pen/Strep (Invitrogen)]. Medium was completely changed on days 1, 2 and of differentiation. EBs were split 1:4 on day 2 of differentiation and the medium was supplemented with 1 μM all-trans retinoic acid (RA, Sigma) and Hh agonist (0.5 μM SAG, Calbiochem or 1 μM HhAg1.3, (Frank-Kamenetsky et al., 2002)). To generate caudal brachial level MNs from ES cells under FGF/Hh conditions, ES cells were plated into non-adherent tissue culture dishes in ADFNK medium (˜20,000 cells/ml). Embryoid bodies (EBs) were split 1:4 on day 2 of differentiation and the medium was changed on days 1, 2 and 5. Selected cultures were supplemented with the following reagents: 10 nM-1 μM RA, 10 nM-1 μM Hh Agonist, 1 μg/ml recombinant mouse Dickkopf-1 (R&D Systems), 50-100 nM FGF/VEGF Receptor Tyrosine Kinase Inhibitor (PD173074, Calbiochem) (Mohammadi et al., 1998), 100-625 ng/ml recombinant human bFGF (PeproTech), 20 ng/ml recombinant human Gdf11/Bmp11 (R&D Systems), 10 ng/ml recombinant rat GDNF (R&D Systems). […]

ES-MNs = experiment: Motor pool identity of ES-MNs (Pea3, Scip) in response to GDNF; assay type: cell-based, mouse
Protocol: as §1, §2, §3
All experiments were performed with HBG3 ES cell line harboring Hb9-GFP transgene (Wichterle et al., 2002) and key experiments were confirmed using a control MM13 ES cell line. Differentiation of HBG3 ES cell line under RA/Hh conditions into rostral cervical MNs was performed as previously described (Wichterle et al., 2002; Wichterle and Peljto, 2008). For production of cervical MNs, ES cells were plated at 50,000 cells/ml in ADFNK differentiation medium [Advanced D-MEM/F-12 (Invitrogen): Neurobasal medium (Invitrogen) (1:1), 10% Knockout Serum Replacement (Invitrogen), […] L-Glutamine (Invitrogen), 0.1 mM β-mercaptoethanol (Sigma), and Pen/Strep (Invitrogen)]. Medium was completely changed on days 1, 2 and of differentiation. EBs were split 1:4 on day 2 of differentiation and the medium was supplemented with 1 μM all-trans retinoic acid (RA, Sigma) and Hh agonist (0.5 μM SAG, Calbiochem or 1 μM HhAg1.3, (Frank-Kamenetsky et al., 2002)). To generate caudal brachial level MNs from ES cells under FGF/Hh conditions, ES cells were plated into non-adherent tissue culture dishes in ADFNK medium (˜20,000 cells/ml). Embryoid bodies (EBs) were split 1:4 on day 2 of differentiation and the medium was changed on days 1, 2 and 5. Selected cultures were supplemented with the following reagents: 10 nM-1 μM RA, 10 nM-1 μM Hh Agonist, 1 μg/ml recombinant mouse Dickkopf-1 (R&D Systems), 50-100 nM FGF/VEGF Receptor Tyrosine Kinase Inhibitor (PD173074, Calbiochem) (Mohammadi et al., 1998), 100-625 ng/ml recombinant human bFGF (PeproTech), 20 ng/ml recombinant human Gdf11/Bmp11 (R&D Systems), 10 ng/ml recombinant rat GDNF (R&D Systems).
For immunocytochemical analysis, EBs were dissociated using 0.05% Trypsin-EDTA (Invitrogen) on day 6 and plated at low density on coverslips (Carolina Biological) first coated with 0.001% solution of poly-1-ornithine (Sigma; diluted in water) and then with mouse laminin ([…] final concentration in PBS; Invitrogen). Cultures were plated and maintained using ADFNB culture medium [Advanced D-MEM/F12:Neurobasal (1:1), 1× B27 supplement (Invitrogen), […] L-Glutamine, and 1× Pen/Strep]. […]

[2] = Example 1, 1 μg/ml on Day 3 of differentiation

Molecule: FGF-2: basic fibroblast growth factor, recombinant human bFGF
- Rostro-caudal positional marker expression / segmental identity ([1]; Example 1): induced predominantly thoracic identity marked by Hoxd9 expression
- Induction of brachial or thoracic markers by FGF-2 ([1]; Example 1, in the presence of RA): not sufficient to induce expression of brachial or thoracic markers
- Rostro-caudal identity of MNs after FGF2 (Hoxd9) ([1]; Example 2, stained day 7, listed as FGF): significant increase in Hoxd9 expressing cells
- Rostro-caudal identity of MNs after FGF2 (Hoxd9) ([1]; Example 2, stained day 7, listed as FGF2): Hoxd9^+ thoracic; also recorded: increase in the number of Hoxd9^+ MNs
- Specification of Hoxc8+ ES-MNs by FGF2 added to RA/Hh ([1]; up to 625 ng/ml FGF2 added to 1 μM RA/Hh differentiation condition): did not result in the specification of Hoxc8^+ ES-MNs

Molecule: CCN(CC)CCCCNc1ncc2cc(-c3cc(OC)cc(OC)c3)c(NC(=O)NC(C)(C)C)nc2n1 [PD173074, reference compound]
- Hoxc8+ cells ([1]; Example 1, 100 nM on Day 3 of differentiation): complete loss of Hoxc8+ cells
- Specification of Hoxc8+ ES-MNs ([1]; Example 2, 50 nM on day 3 of differentiation (FIG. 22H)): generation of ES-MNs that expressed Hoxa5 but lacked Hoxc8 expression; also recorded: selectively prevented specification of caudal brachial Hoxc8^+ ES-MNs

B1: Dkk1: Wnt antagonist, recombinant mouse Dickkopf-1 (protein, UniProt O54908 32-272, looked up)
Dickkopf-related protein 1: TLNSVLINSNAIKNLPPPLGGAGGQPGSAVSVAPGVLYEGGNKYQTLDNYQPYPCAEDEECGSDEYCSSPSRGAAGVGGVQICLACRKRRKRCMRHAMCCPGNYCKNGICMPSDHSHFPRGEIEESIIENLGNDHNAAAGDGYPRRTTLTSKIYHTKGQEGSVCLRSSDCAAGLCCARHFWSKICKPVLKEGQVCTKHKRKGSHGLEIFQRCYCGEGLACRIQKDHHQASNSSRLHTCQRH
- Neural specification (NeuN) [1, 2]: did not interfere with neural specification
- Otx2 expression (rostral neural identity) [1, 2]: induction of Otx2 expression
- Spinal identity (Hoxa5, Hoxc8, Hoxd9, Hoxd10 expression) [1, 2]: lost their spinal identity
- Otx2+ forebrain/midbrain neural cells ([1]; Example 2, 1 μg/ml on day 2, Otx2 on day 5): appearance of Otx2^+ forebrain/midbrain neural cells
- Specification of spinal cells (Hox and MN markers) ([1]; Example 2, 1 μg/ml on day 2 of differentiation): lacked spinal character; also recorded: prevented specification of spinal cells

B2: Gdf11: Growth differentiation factor 11, recombinant human Gdf11/Bmp11 (protein, UniProt O95390 299-407, looked up)
Growth/differentiation factor …: NLGLDCDEHSSESRCCRYPLTVDFEAFGWDWIIAPKRYKANYCSGQCEYMFMQKYPHTHLVQQANPRGSAGPCCTPTKMSPINMLYFNDKQQIIYGKIPGMVVDRCGCS
- Rostro-caudal positional marker expression / segmental identity ([1]; Example 1): emergence of even more caudal Hoxd10 positive lumbar nerve cells
- Rostro-caudal identity of MNs after Gdf11 (Hoxd10) ([1]; Example 2, 20 ng/ml on day 3, stained day 7): Hoxd10^+ lumbar; also recorded: specification of MNs expressing Hoxd10; also recorded: significant increase in Hoxd10 expressing ES-MNs

B3: GDNF: glial cell line-derived neurotrophic factor, recombinant rat GDNF (protein, UniProt Q07731 78-211, looked up)
Glial cell line-derived …: SPDKQAAALPRRERNRQAAAASPENSRGKGRRGQRGKNRGCVLTAIHLNVTDLGLGYETKEELIFRYCSGSCEAAETMYDKILKNLSRSRRLTSDKVGQACCRPVAFDDDLSFLDDSLVYHILRKHSAKRCGCI
- Pea3+ ES-MNs expressing Isl1 (ES-MNs; GDNF 10 ng/ml on day 5): ~90%
- Pea3+ ES-MNs expressing Lhx1 (ES-MNs; GDNF 10 ng/ml on day 5): ~10%
- Percentage of Scip+ MNs, presence versus absence of GDNF (ES-MNs; brachial MNs): not significantly different
- LMC (FoxP1+) MNs expressing Pea3 (ES-MNs; caudal brachial ES-MNs, 10 ng/ml GDNF on day 5): ~20%
- Pea3 expression in cervical (RA/Hh differentiated) MNs treated with GDNF (ES-MNs; cervical ES-MNs): no Pea3 expressing MNs were detected; also recorded: not sufficient to induce Pea3 expression; also recorded: do not acquire expression of Pea3
- Scip+ FoxP1+ ES-MNs (ES-MNs; presence or absence of GDNF): ~10%
